Results on one molecule are retold here after US20260224754A1, “ORAL FORMULATION TO ENSURE BIOAVAILABILITY OF PEPTIDE, PROTEIN, AND NUCLEIC ACID THERAPEUTICS” (THE TRUSTEES OF COLUMBIA UNIVERSITY IN THE CITY OF NEW YORK, priority 2023, published 2026).

One experiment relates to muscles of WT male mice. Description: muscle gene expression in WT mice treated with recombinant LCN2. It is filed as in vivo. The source says: (§1) Mean±SEM. *, P<0.05, Student's t test.
FIGS. 32A-32B show relative expression levels (fold over vehicle) of MyHCIIa and MyHCIIb in EDL of 12-week-old male Lcn2osb−/− or WT littermates (FIG. 32A) or 8-week-old WT male mice treated with the indicated doses of recombinant Lcn2 or vehicle (n=6/group) for 16 weeks (FIG. 32B). Mean±SEM. *, P<0.05, Student's t test.
FIGS. 34A-34B show relative expression levels (fold over vehicle) of the indicated genes in tibialis anterior of 12-week-old male Lcn2osb−/− or WT littermates (FIG. 34A) or 8-week-old WT male mice treated with 150 ng/g/day recombinant Lcn2 (n=7) or vehicle (n=8) for 16 weeks (FIG. 34B). Mean±SEM. *, P<0.05, Student's t test.
Regarding muscle function, LCN2 is required to maintain lean mass and endurance. […] Endurance measured as exercise distance of 6-month old LCN2−/− and WT littermates individually housed in cages equipped with voluntary running wheels and recorded for 14 days following a 7-day acclimation is shown in FIG. 28B. The increase in energy expenditure of overexpressed LCN2 can be explained in part from the increase in lean body mass, which is correlated to basal metabolic rate. […] Myogenic regulatory factors, namely myf5, mrf4, myoD and myoG. are transcription factors that regulate myogenesis. In the knockout mice, these myogenic factors either decreased or had little change though seems to trend to decrease.
Furthermore, the effect was studied in the specific type of type two muscle fiber. Type IIb is the classical fast twitch, white meat, glycolytic fiber type, whereas type IIa is still considered fast twitch but with oxidative capacity. It is considered in between an in between muscle fiber type between type 1, which are the slow twitch, red meat, oxidative muscle fiber, and classic type IIB. […] Both type II fibers are fast twitch, primarily glycolytic muscle fibers, but the type A ones are characterized by more mitochondria and seem to be more oxidative. […]

Another experiment concerns C2C12 cells. Briefly: gene expression and PKA/cAMP in C2C12 cells treated with recombinant LCN2. It is filed as cell-based, mouse. As to the method:
as §1
FIG. 37 show relative expression levels (fold over vehicle) of AcylcoA, Mcad and Ucp2 in C2C12 cells treated with increasing concentrations of recombinant Lcn2 for 4 h. Mean±SEM. *, P<0.05, Student's t test.
The in vivo results were confirmed in vitro. […] FIG. 40 summarizes how LCN2 regulate lean body mass with an increase in myogenesis and energy expenditure.

B1: LCN2: bone-derived hormone, also known as oncogene 24p3 or neutrophil gelatinase-associated lipocalin (protein, UniProt P80188 21-198, looked up)
Neutrophil …: QDSTSDLIPAPPLSKVPLQQNFQDNQFQGKWYVVGLAGNAILREDKDPQKMYATIYELKEDKSYNVTSVLFRKKKCDYWIRTFVPGCQPGEFTLGNIKSYPGLTSYLVRVVSTNYNQHAMVFFKKVSQNREYFKITLYGRTKELTSELKENFIRFSKSLGLPENHIVFPVPIDQCIDG
For B1, in the experiment with muscles of WT male mice (EDL, WT male mice, 16 weeks), the “myosin heavy chain type IIa versus type IIb” value is “increases the amount of myosin heavy chain type IIa compared to type IIb”. In addition, the “expression of myogenic regulatory factors (myf5, mrf4, myoD, myoG)” value in the experiment with muscles of WT male mice (male WT mice treated with LCN2) is recorded as “at least a twofold increase in all myogenic regulatory factors”. In addition, in the experiment on muscles of WT male mice (tibialis anterior, WT mice treated with LCN2), the “expression of mitochondrial genes” value is listed as “increase in these mitochondrial genes”. In addition, in the experiment with C2C12 cells (4 h), the “expression of genes associated with beta-oxidation” value is recorded as “increase in the expression of genes associated with B-oxidation”; the “expression of genes that promote mitochondrial biogenesis (NRF1, Pgc1a)” value is given as “increases the expression of genes that promote mitochondrial biogenesis”; the “expression of genes that promote myogenesis” value was “increases the expression of genes that promote myogenesis”. Also, the PKA/cAMP activity entry with C2C12 cells (Western blot and ELISA) is given as “induces PKA/cAMP activity”.
